Experimental data taken from IntAct's records for PubMed 26305884.

Target: ccyl1_mouse Ccnyl1 (UniProt D3YUJ3)
Sequence (D3YUJ3 whole entry): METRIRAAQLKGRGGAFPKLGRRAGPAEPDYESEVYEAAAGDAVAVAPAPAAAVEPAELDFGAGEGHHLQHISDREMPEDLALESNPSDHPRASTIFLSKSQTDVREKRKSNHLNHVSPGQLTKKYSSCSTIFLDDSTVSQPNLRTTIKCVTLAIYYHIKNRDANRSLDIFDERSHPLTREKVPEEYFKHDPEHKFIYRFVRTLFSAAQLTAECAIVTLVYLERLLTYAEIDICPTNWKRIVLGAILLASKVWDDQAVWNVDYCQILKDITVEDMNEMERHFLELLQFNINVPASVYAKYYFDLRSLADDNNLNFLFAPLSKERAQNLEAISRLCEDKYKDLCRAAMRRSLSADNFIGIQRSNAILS

Cyclin-dependent kinase 16 (Mus musculus), Q04735 S153A, sequence (Q04735 whole entry S153A): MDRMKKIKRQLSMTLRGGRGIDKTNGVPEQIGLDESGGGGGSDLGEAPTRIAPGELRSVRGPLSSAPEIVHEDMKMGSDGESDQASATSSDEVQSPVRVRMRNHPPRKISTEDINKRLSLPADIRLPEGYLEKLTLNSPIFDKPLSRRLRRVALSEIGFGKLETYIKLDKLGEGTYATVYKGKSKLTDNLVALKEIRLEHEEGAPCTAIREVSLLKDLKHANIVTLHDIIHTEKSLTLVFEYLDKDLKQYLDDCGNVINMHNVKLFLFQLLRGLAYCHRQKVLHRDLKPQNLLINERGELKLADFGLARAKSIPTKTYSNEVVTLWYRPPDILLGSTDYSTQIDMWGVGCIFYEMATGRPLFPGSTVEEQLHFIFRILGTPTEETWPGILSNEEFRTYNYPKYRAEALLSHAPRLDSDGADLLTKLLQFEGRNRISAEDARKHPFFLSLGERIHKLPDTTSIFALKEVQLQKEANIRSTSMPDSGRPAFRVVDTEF
Cyclin-dependent kinase 16 (Mus musculus), Q04735 S119A, sequence (Q04735 whole entry S119A): as the sequence (Q04735 whole entry S153A) above, with S119A, A153S counted along it
Cyclin-dependent kinase 16 (Mus musculus), Q04735 S153D, sequence (Q04735 whole entry S153D): as the sequence (Q04735 whole entry S153A) above, with A153D counted along it
Cyclin-dependent kinase 16 (Mus musculus), Q04735 S78A, sequence (Q04735 whole entry S78A): as the sequence (Q04735 whole entry S153A) above, with S78A, A153S counted along it
Cyclin-dependent kinase 16 (Mus musculus), Q04735 S146D, sequence (Q04735 whole entry S146D): as the sequence (Q04735 whole entry S153A) above, with S146D, A153S counted along it
Cyclin-dependent kinase 16 (Mus musculus), Q04735 S110A, sequence (Q04735 whole entry S110A): as the sequence (Q04735 whole entry S153A) above, with S110A, A153S counted along it
Cyclin-dependent kinase 16 (Mus musculus), Q04735 S110D, sequence (Q04735 whole entry S110D): as the sequence (Q04735 whole entry S153A) above, with S110D, A153S counted along it
Cyclin-dependent kinase 16 (Mus musculus), Q04735 S146A, sequence (Q04735 whole entry S146A): as the sequence (Q04735 whole entry S153A) above, with S146A, A153S counted along it

## Cyclin-dependent kinase 16 (Mus musculus), Q04735 P205A;T207A;R210A;E211A
  effect of a mutation on the interaction: disrupting interaction strength

## Cyclin-dependent kinase 16 (Mus musculus), Q04735 S78A
  effect of a mutation on the interaction: increasing interaction strength

## Cyclin-dependent kinase 16 (Mus musculus), Q04735 S110A
  effect of a mutation on the interaction: decreasing interaction strength

## Cyclin-dependent kinase 16 (Mus musculus), Q04735 S110D
  effect of a mutation on the interaction: decreasing interaction strength

## Cyclin-dependent kinase 16 (Mus musculus), Q04735 S119A
  effect of a mutation on the interaction: decreasing interaction strength

## Cyclin-dependent kinase 16 (Mus musculus), Q04735 S146A
  effect of a mutation on the interaction: disrupting interaction strength

## Cyclin-dependent kinase 16 (Mus musculus), Q04735 S146D
  effect of a mutation on the interaction: disrupting interaction strength

## Cyclin-dependent kinase 16 (Mus musculus), Q04735 S153A
  effect of a mutation on the interaction: increasing interaction strength

## Cyclin-dependent kinase 16 (Mus musculus), Q04735 S153D
  effect of a mutation on the interaction: decreasing interaction strength

## Cyclin-dependent kinase 16 (Mus musculus), Q04735 T175A
  effect of a mutation on the interaction: decreasing interaction strength

## Cyclin-dependent kinase 16 (Mus musculus), Q04735 T175D
  effect of a mutation on the interaction: increasing interaction strength
